The results in this text go back to PMC4832279, “Characterisation of Shigella Spa33 and Thermotoga FliM/N reveals a new model for C‐ring assembly in T3SS” (Molecular Microbiology, 2015).

Substitutions are numbered along the chain they refer to. Names and notes keep the numbering of the source. Values joined by “and” are separate entries in the source; they are usually repeats but may differ in a detail not shown here. Equal values may be shown once.

The target in series [1] is Spa33-C (co-expressed from pRSFDuet-Spa33-C with Spa33-FL(CTD)) (Shigella flexneri) (UniProt P0A1K9). The experiment in a line: native MS; purified proteins or co-expressed, co-purified complexes, buffer-exchanged in 200 mM ammonium acetate pH 7.5; non-denaturing conditions; Synapt HDMS.
Series [2] concerns the target Spa33-FL(CTD) (construct comprising only SpoA1 and SpoA2 of Spa33-FL) (Shigella flexneri). Described as above.
For series [3], the target named is Spa33-C (expressed alone from pET28b-Spa33-C, tag removed, 15N-labelled) (Shigella flexneri) (UniProt P0A1K9). Described as above.
Series [4] concerns the target Spa33-Cmbp (Spa33-C with a C-terminal maltose binding protein fusion) (Shigella flexneri) (UniProt P0A1K9). The series is described as above.
For series [5], the target named is Spa33-FL expressed from pETDuet-Spa33ΔRBS (N-terminal His-tag) (Shigella flexneri) (UniProt P0A1K9). Described as above.
Series [6] addresses Spa33-Cstrep (Spa33-C with an eight residue C-terminal Strep-tag) (Shigella flexneri) (UniProt P0A1K9). The description is as above.
The target of series [7] is Spa33-Ctrx (Spa33-C with a C-terminal thioredoxin fusion) (Shigella flexneri) (UniProt P0A1K9). Described as above.
For series [8], the target named is Spa33-FL/C2 (1:2 complex of His-Spa33-FL and Spa33-C) (Shigella flexneri) (UniProt P0A1K9). The description is as above.
The target in series [9] is Spa33-FL/C2(Y221R) (1:2 complex with Y221R in Spa33-FL and in both copies of Spa33-C) (Shigella flexneri) (UniProt P0A1K9). The description is as above.
Series [10] deals with Spa33-FL/Cstrep2 (1:2 complex of Spa33-FL and Spa33-Cstrep) (Shigella flexneri) (UniProt P0A1K9). The series is described as above.
The target in series [11] is Spa33-FL/Ctrx2 (1:2 complex of Spa33-FL and Spa33-Ctrx) (Shigella flexneri) (UniProt P0A1K9). The series is described as above.
Series [12] has as its target Thermotoga maritima FliM with an N-terminal His-tag (Thermotoga maritima) (UniProt Q9WZE6). The series is described as above.
The target of series [13] is Thermotoga maritima FliN (C-terminal 132 residues of FliY) (Thermotoga maritima). The series is described as above.
Series [14] deals with the molecule itself. The experiment in a line: crystal structure; 2.3 Å; 10 mg/ml Spa33 208-293, 21°C, sitting drop, 10% isopropanol, 0.1 M Na HEPES pH 7.0, 10% PEG 4000.
In series [15] the target is T1, Spa33-FL (full-length Spa33 with an N-terminal His-tag) (Shigella flexneri, UniProt P0A1K9 1-293).
T1 construct: Spa33 (SctQ), Shigella flexneri, full length; 293 residues by the printed range 192-293 at the extreme C-terminus; also called SctQ; His-Spa33-FL; source: E. coli B834 (DE3), from pET28b-Spa33, purified with Spa33-C (Ni-NTA, SEC)
T1 sequence: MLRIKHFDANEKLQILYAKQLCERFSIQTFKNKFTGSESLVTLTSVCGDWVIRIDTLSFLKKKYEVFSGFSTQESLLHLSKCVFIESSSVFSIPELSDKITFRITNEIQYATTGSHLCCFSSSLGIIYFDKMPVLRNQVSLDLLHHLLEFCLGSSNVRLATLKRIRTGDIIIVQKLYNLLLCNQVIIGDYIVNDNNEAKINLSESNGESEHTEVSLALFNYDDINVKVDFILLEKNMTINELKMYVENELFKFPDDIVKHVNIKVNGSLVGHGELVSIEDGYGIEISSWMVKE
The experiment in a line: native MS; purified proteins or co-expressed, co-purified complexes, buffer-exchanged in 200 mM ammonium acetate pH 7.5; non-denaturing conditions; Synapt HDMS. The note with it: both partners purified.

Series [16] concerns the molecule itself. The series is described as above.
In series [17] the target is T2, Spa33-FL(Y221R) with an N-terminal His-tag (Shigella flexneri, UniProt P0A1K9 1-293, Y221R).
T2 construct: Spa33 (SctQ), Shigella flexneri, full length, Y221R in the SpoA2 domain; also called Spa33-FL of Spa33-FL/C2(Y221R); source: E. coli B834 (DE3), from pET28b-Spa33(Y221R), purified with Spa33-C(Y221R) (Ni-NTA, SEC)
T2 sequence: T1 sequence with Y221R
The description is as above. Particulars: both partners purified.

Thermotoga maritima FliM with an N-terminal His-tag (Thermotoga maritima), sequence (Q9WZE6 whole entry): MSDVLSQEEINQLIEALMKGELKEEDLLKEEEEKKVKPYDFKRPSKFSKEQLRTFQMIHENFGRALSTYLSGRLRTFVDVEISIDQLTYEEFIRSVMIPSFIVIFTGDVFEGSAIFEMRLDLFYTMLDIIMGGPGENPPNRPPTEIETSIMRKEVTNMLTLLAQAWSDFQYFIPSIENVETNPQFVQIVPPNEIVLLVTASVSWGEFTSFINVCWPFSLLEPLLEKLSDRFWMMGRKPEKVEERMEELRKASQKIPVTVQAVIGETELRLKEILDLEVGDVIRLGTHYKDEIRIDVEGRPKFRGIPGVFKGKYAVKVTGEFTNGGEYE

Consider “Spa33-C (co-expressed from pRSFDuet-Spa33-C with Spa33-FL(CTD)) (from UniProt P0A1K9 192-293) (domain or fragment)”, for which the stoichiometry N in series [1] and in series [2] was 2 throughout.
“Spa33-C (expressed alone from pET28b-Spa33-C, tag removed, 15N-labelled) (from UniProt P0A1K9 192-293) (domain or fragment)” came in with a stoichiometry N in series [3] of 2.
For the molecule “Spa33-Cmbp (Spa33-C with a C-terminal maltose binding protein fusion) (from UniProt P0A1K9 192-293) (domain or fragment)”, the stoichiometry N in [4] and in series [5] was 2 in each case.
As to “Spa33-Cstrep (Spa33-C with an eight residue C-terminal Strep-tag) (from UniProt P0A1K9 192-293) (domain or fragment)”, the stoichiometry N in series [6] and in series [5] was 2 each time.
As to “Spa33-Ctrx (Spa33-C with a C-terminal thioredoxin fusion) (from UniProt P0A1K9 192-293) (domain or fragment)”, the stoichiometry N in [7] and in series [5] was 2 in each case.
Turning to “Spa33-FL(CTD) (construct comprising only SpoA1 and SpoA2 of Spa33-FL) (domain or fragment)”, the stoichiometry N in series [2] is 2 and 3.
Turning to “Spa33-FL/C2 (1:2 complex of His-Spa33-FL and Spa33-C) (from UniProt P0A1K9 1-293; P0A1K9 192-293)”, the stoichiometry N in [8] is 2 and 4 and 6.
Turning to “Spa33-FL/C2(Y221R) (1:2 complex with Y221R in Spa33-FL and in both copies of Spa33-C) (from UniProt P0A1K9 1-293; P0A1K9 192-293)”, the stoichiometry N in series [9] was determined as 2.
In the case of “Spa33-FL/Cstrep2 (1:2 complex of Spa33-FL and Spa33-Cstrep) (from UniProt P0A1K9 1-293; P0A1K9 192-293)”, the stoichiometry N in [10] is 2 and 4.
In the case of “Spa33-FL/Ctrx2 (1:2 complex of Spa33-FL and Spa33-Ctrx) (from UniProt P0A1K9 1-293; P0A1K9 192-293)”, in series [11], the stoichiometry N amounted to 2.
As for “Thermotoga maritima FliN (C-terminal 132 residues of FliY) (domain or fragment)”, the stoichiometry N in [12] was 3; in series [13] it was 2.
On to “Thermotoga maritima FliY, full length (natural protein)”, for which, in series [12], the stoichiometry N turned out to be 1.

B1: Spa33 208-293 (C-terminal 86 residues of Spa33) (domain or fragment)
chain: ESEHTEVSLALFNYDDINVKVDFILLEKNMTINELKMYVENELFKFPDDIVKHVNIKVNGSLVGHGELVSIEDGYGIEISSWMVKE
notes: Spa33 (SctQ), Shigella flexneri, residues 208-293; Two copies of the dimer in the asymmetric unit; also called SpoA2 domain of Spa33; source: E. coli B834 (DE3), purified (Ni-NTA, carboxypeptidase A, SEC); not shown: His tag, C-terminal, cleaved
Regarding B1, the binding result in [14] is “binds”.

B2: Spa33-C (alternative translation product of spa33, residues 192-293) (domain or fragment)
chain: MNDNNEAKINLSESNGESEHTEVSLALFNYDDINVKVDFILLEKNMTINELKMYVENELFKFPDDIVKHVNIKVNGSLVGHGELVSIEDGYGIEISSWMVKE
modifications: formylmethionine at the N-terminus (expected from the measured mass)
notes: Spa33 (SctQ), Shigella flexneri, residues 192-293; translated from an internal GTG start codon; Forms a homodimer (Spa33-C2) in the native mass spectrum; also called short variant of Spa33; source: E. coli B834 (DE3), made from the internal start site of pET28b-Spa33, co-purified with His-Spa33-FL (Ni-NTA, SEC)
In the case of B2, the “stoichiometry N” value in series [15] and in series [16] was 2 throughout.

B3: Spa33-C(Y221R) (domain or fragment)
chain: B2 chain with Y30R
modifications: formylmethionine at the N-terminus (as told for wild-type Spa33-C)
notes: Spa33 (SctQ), Shigella flexneri, residues 192-293 (Spa33-C), Y221R; also called Spa33-C of Spa33-FL/C2(Y221R)
For the molecule B3, the “stoichiometry N” value in [17] turned out to be 2.

A word on the stoichiometry N: it is a count of units in the complex or per binding partner.
